Earlier results, collected in patent US20250099434A1, “METHODS OF TREATING AMYLOID RELATED BRAIN DISORDERS USING NOVEL COMPOUNDS AND ANTIBODIES” (T3D Therapeutics, Inc., priority 2022, published 2025).

What was measured:
[1] = EXPEDITION-3; cited from earlier work
[2] = human, in vivo; cited from earlier work
[3] = system: Aβ fibrils; settings: cited from earlier work
[4] = system: brain amyloid; settings: cited from earlier work

solanezumab: humanized monoclonal IgG1 antibody directed against the mid-domain of the Aβ peptide
incidence of vasogenic edema (ARIA-E), patients treated [1]: approximately 0.1%

Crenezumab: humanized antibody with an IgG4 backbone recognizing multiple forms of aggregated Aβ
ARIA incidence [2]: low

B1: Gantenerumab: fully human IgG1 antibody binding a conformational epitope on Aβ fibrils (antibody, chains of the INN, looked up, V domains shown)
VH: QVELVESGGGLVQPGGSLRLSCAASGFTFSSYAMSWVRQAPGKGLEWVSAINASGTRTYYADSVKGRFTISRDNSKNTLYLQMNSLRAEDTAVYYCARGKGNTHKPYGYVRYFDVWGQGTLVTVSS
VL: DIVLTQSPATLSLSPGERATLSCRASQSVSSSYLAWYQQKPGQAPRLLIYGASSRATGVPARFSGSGSGTDFTLTISSLEPEDFATYYCLQIYNMPITFGQGTKVEIK
affinity to a conformational epitope on Aβ fibrils [3]: sub-nanomolar
lowering of brain amyloid, average, florbetapir PET ([4]; dosed as high as 1200 mg subcutaneously): 59 centiloid
participants who developed ARIA-E ([4]; extension studies): one-third
patients with ARIA ([4]; highest dose): one third
